B1: STS165 (full-length IgG form) (antibody, V domains shown)
VH: EVQLVESGGGVVRPGGSLRLSCAASGFTFDDYGMSWVRQAPGKGLEWVSGINWNGGSTGYADSVKGRFTISRDNAKNSLYLQMNSLRAEDTALYHCARVGYCGGDCYSLSLAGFPDYWGQGTLVTVSS
VL: not shown
B2: STS165 Fab form (Fab, V domains shown)
VH: B1 VH
VL: not shown

Target: SARS-CoV-2 Omicron RBD protein (SARS-CoV-2 Omicron (BA.1), S371L | S373P | S375F)
Assay: SPR

| Binder | fold decrease of binding affinity against WT RBD | fold decrease of binding affinity against the IgG form |
| --- | --- | --- |
| B1 | 3 fold |  |
| B2 |  | > 50 fold |
